Experimental data published in US20100107264A1.
Values joined by “and” are separate entries in the source; they are usually repeats but may differ in a detail not shown here. Equal entries are not always repeated.

Target: M144 mutant NS1A protein (L-to-A substitution at position 144) (influenza A/Udorn/72 virus) (UniProt P03495)

Substance: GST-F2F3 (GST fusion of CPSF30 amino acids 61-121, second and third zinc fingers)
- percent of wild-type binding (% of wild-type binding): 5 and 10
